Laboratory results taken from article PMC7409020 (2020).
Square brackets hold non-standard residues; d marks the D form. Ends that are not written are not given here.

B1: A-[Ala^2]CooP (peptide)
peptide: ACALSGLGVA-NH2
B2: A-[Ala^6]CooP (peptide)
peptide: ACGLSGAGVA-NH2
B3: A-[Ala^8]CooP (peptide)
peptide: ACGLSGLGAA-NH2
B4: A-[Ala^3]CooP (peptide)
peptide: ACGASGLGVA-NH2
B5: RI-A-CooP (peptide)
peptide: [dA][dV]G[dL]G[dS][dL]G[dC][dA]-NH2
modifications: N-terminus assumed
SMILES: CC(C)C[C@@H](NC(=O)CNC(=O)[C@H](NC(=O)[C@@H](C)N)C(C)C)C(=O)NCC(=O)N[C@H](CO)C(=O)N[C@H](CC(C)C)C(=O)NCC(=O)N[C@H](CS)C(=O)N[C@H](C)C(N)=O
B6: A-[Ala^4]CooP (peptide)
peptide: ACGLAGLGVA-NH2

Each binder was assayed against recombinant N-terminal His6-tagged human FABP3 (human, NT-650-NHS red amine-reactive fluorescent dye (in the MST experiments only)) (assay: MST).
Sequence of recombinant N-terminal His6-tagged human FABP3 (human, NT-650-NHS red amine-reactive fluorescent dye (in the MST experiments only)) (P05413 whole entry): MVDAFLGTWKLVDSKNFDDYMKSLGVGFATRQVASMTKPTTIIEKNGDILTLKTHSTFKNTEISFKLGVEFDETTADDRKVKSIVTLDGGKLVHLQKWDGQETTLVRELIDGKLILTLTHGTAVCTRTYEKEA

Row | Kd [nM] | Binder
1 | 90 | B1
2 | 190 | B2
3 | 120 | B3
4 | 250 | B4
5 | 24000 | B5
6 | 110 | B6
